Non-standard residues stand in square brackets, D forms with d. No end group written: not given here. pS = N[C@@H](COP(=O)(O)O)C(=O)O; MBP = not defined here

We go through one molecule from publication PMC2894451 (The Journal of Cell Biology, 2010).

For the experiment, the target named is T1, GST-CHC 331–542 fragment (UniProt Q00610 331-542).
T1 sequence: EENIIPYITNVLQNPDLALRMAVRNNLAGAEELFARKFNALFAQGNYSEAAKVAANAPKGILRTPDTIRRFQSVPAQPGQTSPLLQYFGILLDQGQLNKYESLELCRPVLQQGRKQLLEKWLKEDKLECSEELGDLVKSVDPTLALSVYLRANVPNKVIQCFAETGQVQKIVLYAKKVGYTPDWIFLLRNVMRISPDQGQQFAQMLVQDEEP
The experiment in a line: pull-down.

B1: MBP-TACC3 522–577, phosphorylated by aurora A (domain or fragment)
chain: {MBP}-EESFRDPAEVLGTGAEVDYLEQFGTSSFKESALRKQ[pS]LYLKFDPLLRDSPGRPVPV
modifications: reading uncertain
B1: the binding result is recorded as “binds”.
